Measured values from the DeepSol protein solubility set.

test: soluble on expression in E. coli; label from the status in PepcDB or PDB records

Soluble on expression in E. coli, not soluble:
MLSTTTIGFPRIGNQRQLKFAMESYFKGDSGEAELLAVAHKVQSDAWALQKAAGIAVIGLDGTLYDQVLDTITWLGAIPPRFKHLSGLQRYYAMARGGAALDMSKFFDTNYHYLVPELGPDVLGPATAAGAPLQPDFSGPLDKLARGQAVVGRERAVPILIGPVTFVSLSRGCELPLDQAVARLLPTYCALLQQLAAAGAPEVQLHEPVLATSEGAGMRAEFETAYAQMAQAAGSVPLHLVTYYDDLGAAYPWAVQLPVAAVTLDFLGPPGAAVPSQTLALLQQHGFPADKRLGAGVVDGRSVWKDDGTAVALLRALLDTGAVSSDRLVVTSSAPLQHLPYDLGLELEAPKTPEAEPHLPPALAARLGFAKQKVEEIVSVARLAASPAAAAAAAGHGAVVQLQRLQQGKGVEDHTADIPAEWFSRPKPYDVRREQQLQLPAFPTTTIGSFPQTAEVRRLRQQLKSGRLTQAEYEGLIAGHIAHAVGVQEALGIDVLVHGEAERTDMVEYFGMQLGGMLFTRAGWVQSYGSRCVRPPLVVDDITYRGPMTCWEYKVASAYTRKPVKGMLTGPVTILNWSFPRKDISRAAQAMQLGLALRQEVAALEAAGCTIIQVDDPALREGLPLKRERWASYLSWAVDAFRLCTGVAAAGTQVVTHLCYSDFQDILPAIDRMDADVLTIENSRSDNAMMAALAAAGYGRDIGPGVYDVHSPVVPSVEFIKSRIRSFVDSGILSGRYDRIWVNPDCGLKTRGWPETIAALRNMVEAAAQARAELQLAGGAAVAPVAGGVEAAGKGAALGAAAGTSRCVDCCH
MTDETENVPKTEQEVPNDPESEKEVKEDAKEEVKDLIPEFYSQHGGDPRLIDIAASVWLSGIPTDFITDTYEQFCETIKNIMKMGHKLDVSTVSKIVRIPNLDSNAKNSEHALRALICFSDKKHIYRMMTREAEFAKEEMKVELIEELPSDALEISEDDKCLLLNGLVEAEDAGDDVDVGGGDDDEIDELMDHDDEGGHDEHEEDEESDVKKEEEKGSEKKEKKPEPPKKKVYEDEDEKAPFEMYWDGAPEFQWRLCEGPRDEKKLIIDNLLWADLNNVFIYRTIQKSTTCEINFPTRFNSDGNRTCHGKLTLFFPGNVAIMDEALKHLVYFRSGDGRRIKVFLPQTTVSLKRKEEFEGKLGRVIKPTERMMQLIVKILPDGYTPTLDEACAWFPLQAVIQCDLVNDEMGNPCAVVKFETAEEAVAAHAGKSFVTIVQKSMITVKDSEGNEKEEEKETETHCNVFMRGGIIMGF
MLKIGPYEFSSRLLLGTGKYPSLDVQKEAVEASGAEILTFAVRRMNIFSPEQPNFLEQLDLSKYKLLPNTAGAKTAEEAVRIARLAKASGLCDMIKVEVIGCDKTLLPDPIETLKAAEMLLEEGFIVLPYTSDDVVLAKRLEELGCHAIMPGASPIGSGQGIINPLNLSFIIEQANVPVIVDAGIGGPADAALAMELGADGVLLNTAVSGAADPVKMAKAMKLAVEAGRLGYEAGRIPKKRYASASSPTEGMSVV
MRLDYWSDSSKPIQQQWRDYDEISDNFKKAVVAAEDGKFVHHHGFDWEGIQYALEKNEKSGEVVNGGSTISQQLAKNLFLYNQRSLIRKGQEAIATWMMERMWSKQRILEVYMNSVQFGDHLYGVEAASHYYFHRSAQNLTRDQAAFLAALLPNPKYYQENRNDPRFKFKKRFTLKYMRYSEIP
MGSDKIHHHHHHMARTNPHRPFVPDPEQAALAPGVSGNDINGLGETAFRRPRMVYWAPDPDDIPHGSLQRYFYRQSAKEPDFASRRAARQAVLDAPLPLLADTVVIRDPADWTAALTQFVDSGLCDLTGVAEMNPDWVFEGHEIPQSRVIMIGVAHDYNVIATAPKPSAGLEVMTQYTRAAQAAKTIAGWLRQQGWQAEPLTGPMTGALAMIPPALACGFGELGKHGSIINPDLGASFRLSAVLSDAPFAPTPAQDHGIDGFCQNCHICQDACPPEALFAQKQTVRGARKWYVDFDKCLPFFNQTHGCAICIAECPWSRPGIGPNLAAKLARKRNRDATG
MNHTADNCIFCKIIDGQILCSKVYEDEHVLAFLDISQVTKGHTLVIPKVHKQDIFALTPEIASHIFSVVPKIANAIKAEFNPVGFNLLNNNGEKAGQTVFHFHLHLIPRYGENDGFGAVWKSHQNEYTMENLQNIASTIANSVK
MNKKYPKINYIGNKEKIASWICDQLPSDVDTVADVFSGGCSFAYEAKKRGYRVITNDILAINYQIALALIENNHETLNDDDVAMIFSGSPHAGFMSQRYSEKFYFHDECQQLDLYRKNIGKLNNQYKRALAFTLMRRAMIRKMPYSRFTIPWEKVKQLRDEEYSYAKYGRRRAYHNESFQSHFLQNLDDYNQAVFNNGWRHHAFNQDIFDLLPNIQADAVYLDPPYTGTMNNYFGFYGLLDSYITSSIPKPFANHFMDKKQAVELFKRVINHLKPFKYWLLSYNNASYPNRDELEEMLGKNGRNVQILETPHVYKVTGKEKKQSHKEILFLVENT
MGSDKIHHHHHHMAYGGRITLNVRIALVGEELEIRENVNIEIEEGIITHIGNGFSSEGITFKNGILIPGIVNAHVHSADFICQEMGYNMPISKVVGDPHSVKYECFAKNTKESIMNSIERFVLRARELGSNVMIDFREQGLEGSLISSTIKKKMATNGVKYYFLGRLEEDEFKDIRNLNSLYKIADGYGLSSAFSTSEIELIKHVFNNKIRSVHVSETIKHWLRDDLEYVMKRYEPNLIIHGTYLSEEEIDIMRYRKASIVYCPRSNLWFSVGIPKVINGLKSGVNLLIGTDNGGVLDPDMWKEMETLLLISRVQDPLSDHSLQILKASTINAYKFLGIRGWIEEGNPIEAGLLVLEGDSTGILNSNNKYIGIIKRGNKIIYNLGAIQKII
MGSDKIHHHHHHMRFSRIPPIFANVVRQTHYRNYANGVIKPREFNKVMVANRGEIAIRVFRALTELNKTSVAIYAEQDKNSMHRLKADEAYLVGKGLPPVAAYLTIDQIIETALKHNIDAIHPGYGFLSERSDFAAACQNAGIVFIGPSPDVMARMGDKVAARQAAIEAGVQVVPGTPGPITTADEAVEFAKQYGTPIILKAAYGGGGRGIRRVDKLEEVEEAFRRSYSEAQAAFGDGSLFVEKFVERPRHIEVQLLGDHHGNIVHLYERDCSVQRRHQKVVEIAPAPALPEGVREKILADALRLARHVGYQNAGTVEFLVDQKGNYYFIEVNARLQVEHTVTEEITGVDLVQAQIRIAEGKSLDDLKLSQETIQTTGSAIQCRVTTEDPAKGFQPDSGRIEVFRSGEGMGIRLDSASAFAGSVISPHYDSLMVKVIASARNHPNAAAKMIRALKKFRIRGVKTNIPFLLNVLRQPSFLDASVDTYFIDEHPELFQFKPSQNRAQKLLNYLGEVKVNGPTTPLATDLKPAVVSPPIPYIPAGAKPPTGLRDVLVQRGPTEFAKEVRSRPGCMITDTTFRDAHQSLLATRVRTYDMAAISPFVAQSFNGLFSLENWGGATFDVSMRFLHECPWERLQTLRKLIPNIPFQCLLRGANAMGYSNYPDNVIYKFCELAVKNGMDVFRVFDSLNYLPNLLVGMEAVGKAGGVVEAAIAYTGDVTDKSRDKYDLKYYLNLADQLVKAQAHILSIKDMAGVLKPEAAKLLIGALRDKFPDIPIHVHTHDTSGAGVAAMLECAKAGADVVDAAVDSMSGMTSQPSMGAIVASLQGTKHDTGLSLDDISKYSAYWESTRQLYAPFECATTMKSGNADVYKHEIPGGQYTNLQFQAFSLGLGPQFDEVKRMYREANLVLGDIIKVTPSSKIVGDLAQFMVQNNLTRETLVDRADDLSFPKSVVDFMQGNVGQPPYGFPEPLRTKVLRGKPKVDGRPGENAKPVDLDAVKVELEEKHGRTLSEEDVMSYSMFPTVFDEFETFRQQYGPVDKLPTRLFLTGLEIAEEVDVEIESGKTLAIQLLAEGKLNKRGEREVFFDLNGQMRSIFVVDKEASKEIVTRPRALPGVRGHIGAPMPGDVLELKIKEGDKVTKKQPLFVLSAMKMEMVIDSPIAGTVKAIHAPQGTKCSAGDLVVEVEP
MGHHHHHHSHMSENELSAEDTAFLEKAFELAQEALDEDEVPVGCVFVVNGTEIGRGRNRVNETGDPTRHAEMVAVTEMWKEHGTGCEDLLKKSTLYVSLEPCIMCSSAMYQLGIRKMVYGAENPRFGGVRSVGSAEKYRMEDNVQIVAGIWSERSVAMLKTFYEKLNPFAPPEKRKTKKPKLDEIK
MGHHHHHHSHALKAGKTASGAGEVVRCLSEQSVAISRCAGGAGARLPALLDEQQVNVLLYDMNGCYSRLKELVPTLPQNRKVSKVEILQHVIDYIRDLQLELNSESEVGTPGGRGLPVRAPLSTLNGEISALTAEAACVPADDRILCR

Soluble on expression in E. coli, soluble:
PHFLILNGPNVNRLGSREPEVFGRQTLTDIETDLFQFAEALHIQLTFFQSNHEGDLIDAIHEAEEQYSGIVLNPGALSHYSYAIRDAVSSISLPVVEVHLSNLYAREEFRHQSVIAPVAKGQIVGLGAEGYKLAVRYLLSQQG
HMSNFTGLKVLVMDENGVSRMVTKGLLVHLGCEVTTVSSNEECLRVVSHEHKVVFMDVCMPGVENYQIALRIHEKFTKQRHQRPLLVALSGNTDKSTKEKCMSFGLDGVLLKPVSLDNIRDVLSDLLEPRVLYEGM
MKEKEYLFSLDMKVRDYECDLQGVVNNSNYQRYMEHTRHEFWESLGDNFGQMHEKGLDAFVYKVTITFKQSLRSGDRFRSCLTCHKKGPKLIFMQDIIREDGVMAARGEVEVVAVQDGVLTRGEYFDVLMKDILSKTTKLEHHHHHH
MNDTPDDTFVSGYLLYLLAASSEEASAQFHDHIRAQGLRVPEWRVLACLVDNDAMMITRLAKLSLMEQSRMTRIVDQMDARGLVTRVADAKDKRRVRVRLTDDGRALAESLVASARAHETRLLSALADTDAARIKGVLRTLLDVLDRPRESR
MSLSPLSKLDKIAVSGNKQLTENEVRKESGLEIGEFVIGISNGKTEDTLKKNTLIKDATVSKEGINDVQINITEFKTIGYQQQDGKYYDVLESGIMLTDQPRQFPIGNDLLFQNFKNGKTLEKMVAQINKLPKDVVSSISEVIYSPTKTDKNHIKLYMNDGNQVSADISTFAEKMQHYPAIVAQLAKGQKGVIDIEVGSYFQSYYQQNAEKKAAEEAAKEKKETNEGHHHHHH
MSLNNMRLFKKSLLAVTVTLATQQAFAAGFQLNAQSATGLGRAFAGDAVIADNAAVMSRNPAAMALFDEMALSLGFETITTMIDVKNVSYRGVLGNSVSVQDTDDVGGTSVAPNIHLIVPVNEQFAWGVNAYSNFGTKTEFSDSYPASEYGGLTDVKSFNLGLAGSYRVNKEWSFGAGLDLIYGQGTMKRIAGTSFPASTIVVNPTTVIPARGTSLLNVDKADGWAVGFNLGTVYEMDENNRFGLSYRYSPEFKAKDDYGQEITLPLPDIAEFSGFHKIENTQFAVHYSVQWIGWSAFDKIEFRNLVTSRSSVGALTKGSYDKMYEWQDGWHYSIGGTYYLNSDWTLRAGYMYDTSAQDSRTSISVPDSDRQWLSAGFTYNIDDKSNVDFGFTYLMGKDVAVSENDAGSKLTATTHADAILLGLQYSRTFEGGSHHHHHH
MAHHHHHHMSTRTILTAGEAAEVLASVRYVLLDVDGVLWAGKHVLPNIPETLLYLRLREKQIRFLTNNASISRAGLVREFQRRGIQGVREGEVYNSGFAAALRLQSLFTANKSTGSGRPLVERNIFVIGEEGLHEELRRVLAPGYIAYGMELHDAEKCGGYDAHVVASAWKQRVLPAPLQSSATSCGIAATGHAAGGISISDLSPAAVVVGLDMHFNMLKLAYASLCLQERPAAQTAGTSSSTPTYFIATNEDPQIPVGEDFLLLPGAGGMVSALRTVSGRSPDFVCGKPHVDMAKVFFEAEGITDPQQCLMVGDRLTTDIAFGNAAGCKTMLVLSGAEKMDRVRQAERDGHVSLLPDFIAPSLAIFLPPA
